Ends that are not written are not given here.
T1: talin1 F2F3 domains
T1 chain: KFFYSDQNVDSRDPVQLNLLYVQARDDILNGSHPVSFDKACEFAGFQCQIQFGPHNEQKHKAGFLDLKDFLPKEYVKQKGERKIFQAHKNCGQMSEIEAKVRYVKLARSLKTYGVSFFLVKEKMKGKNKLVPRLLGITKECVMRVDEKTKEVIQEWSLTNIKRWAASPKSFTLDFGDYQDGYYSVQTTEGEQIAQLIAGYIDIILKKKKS

T2: talin2 F2F3 domains
T2 chain: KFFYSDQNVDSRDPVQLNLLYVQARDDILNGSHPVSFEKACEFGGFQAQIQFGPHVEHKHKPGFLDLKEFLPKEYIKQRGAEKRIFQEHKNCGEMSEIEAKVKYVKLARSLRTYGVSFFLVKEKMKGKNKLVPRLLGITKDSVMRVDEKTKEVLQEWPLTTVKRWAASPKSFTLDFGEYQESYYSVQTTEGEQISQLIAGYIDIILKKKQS


Columns and labels:
talin1 F2F3 domains = biological target: T1, talin1 F2F3 domains; test: FP
talin2 F2F3 domains = biological target: T2, talin2 F2F3 domains; test: FP

Binder | Kd (talin1 F2F3 domains) [µM] | Kd (talin2 F2F3 domains) [µM]
KLLMIIHDRREFAKFEKEKMNAKWDTGENPIYKSAVTTVVNPKYEGK (not fully specified (N-terminus)) [β1A, listing 1 of 2 here] | 95.1 | –
KLLMIIHDRREFAKFEKEKMNAKWDTGENPIYKSAVTTVVNPKYEGK (not fully specified (N-terminus)) [β1A, listing 2 of 2 here] | – | 35.3
